These results are taken from patent US20250215104A1 (WALDEN BIOSCIENCES, published 2025).

For assay [1], the target named is T1, human soluble urokinase plasminogen activator receptor (hsuPAR) (human, UniProt Q03405 23-303, limits assumed).
T1 construct: also called human suPAR; rhuPAR-His
As to the kind of experiment: BLI (Octet) off-rate screen of scFv.
T1 sequence (Q03405 23-303 limits assumed): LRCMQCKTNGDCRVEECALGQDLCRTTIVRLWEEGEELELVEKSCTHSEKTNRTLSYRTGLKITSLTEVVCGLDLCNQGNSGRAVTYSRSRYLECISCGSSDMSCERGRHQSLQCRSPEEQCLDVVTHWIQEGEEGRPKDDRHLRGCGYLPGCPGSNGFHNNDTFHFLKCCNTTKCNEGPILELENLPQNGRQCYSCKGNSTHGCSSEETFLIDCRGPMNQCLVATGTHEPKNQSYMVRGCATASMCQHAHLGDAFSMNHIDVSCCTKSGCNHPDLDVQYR

For assay [2], the target named is T2, cynomolgus soluble urokinase plasminogen activator receptor (cynomolgus suPAR) (cynomolgus, UniProt Q9GK78 23-303, limits assumed).
T2 construct: also called cynomolgus uPAR; cynoPLAUR-His
As to the kind of experiment: BLI (Octet) off-rate screen of scFv.
Target sequence in this assay (Q9GK78 23-303 limits assumed): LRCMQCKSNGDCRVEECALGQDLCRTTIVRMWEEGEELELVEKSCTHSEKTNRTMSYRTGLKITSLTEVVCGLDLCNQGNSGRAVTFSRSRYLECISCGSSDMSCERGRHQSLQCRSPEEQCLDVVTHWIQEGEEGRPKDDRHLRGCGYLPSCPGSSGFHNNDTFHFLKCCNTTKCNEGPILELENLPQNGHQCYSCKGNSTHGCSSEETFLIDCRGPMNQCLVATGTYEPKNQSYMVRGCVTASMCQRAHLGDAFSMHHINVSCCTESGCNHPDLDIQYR

Assay [3] addresses T3, cynomolgus soluble urokinase plasminogen activator receptor (cynomolgus suPAR) (cynomolgus, UniProt Q9GK78 23-303, limits assumed).
T3 construct: also called cynomolgus uPAR; cynoPLAUR-His
As to the kind of experiment: off-rate screen of scFv clones (kdis), Octet BLI. In general terms: BLI is a label-free optical method that tracks binding on a fibre tip over time.
Target sequence in this assay (Q9GK78 23-303 limits assumed): as above

The target of assay [4] is T4, human soluble urokinase plasminogen activator receptor (hsuPAR) (human, UniProt Q03405 23-303, limits assumed).
T4 construct: also called human suPAR; rhuPAR-His
The experiment in a line: off-rate screen of scFv clones (kdis), Octet BLI.
T4 sequence (Q03405 23-303 limits assumed): as the sequence (Q03405 23-303 limits assumed) above

B1: suPAR_DB01_F03 (scFv, V domains shown)
VH: QVQLVQSGAEVKKPGASVKVSCKASGYTFTSYYMHWVRQAPGQGLEWMGWIDHENGNTIYDQKFQGRVTMTRDTSTSTVYMELSSLRSEDTAVYYCARGYDVDWFVYWGQGTLVTVSS
VL: DIQMTQSPSSLSASVGDRVTITCSARQSVSYMYWYQQKPGKAPKLLIYRTSNLASGVPSRFSGSGSGTDFTLTISSLQPEDFATYYCQQYHSYPPTFGGGTKVEIK
notes: Screened as scFv
In general, koff refers to a measure of how fast the partners let go of each other. High values mean fast dissociation, low ones slow dissociation. On to B1, for which the koff in assay [1] turned out to be 0.00251 s⁻¹; in assay [2], 6.17e-07 s⁻¹.

B2: suPAR_DB04_E05 (scFv, V domains shown)
VH: QVQLVQSGAEVKKPGASVKVSCKASGFNIKDYYIHWVRQAPGQGLEWVGWIDPHSGGTNYAQKFQGRVTMTRDTSTSTVYMELSSLRSEDTAVYYCARGYDVDWFVYWGQGTLVTVSS
VL: DIQMTQSPSSLSASVGDRVTITCSARSSVSYMYWYQQKPGKAPKLLIYRTSNLASGVPSRFSGSGSGTDFTLTISSLQPEDFATYYCQQYHSYPPTFGGGTKVEIK
notes: scFv clone from phage display
As for B2, the koff in assay [3] was 3.92e-07 s⁻¹; in assay [4] it was 0.00359 s⁻¹.

B3: suPAR_DB01_F08 (scFv, V domains shown)
VH: QVQLVQSGAEVKKPGASVKVSCKASGYTFTGYYMHWVRQAPGQGLEWMGWIDHENGSTIYAQKFQGRVTMTRDTSTSTVYMELSSLRSEDTAVYYCARGYDVDWFVYWGQGTLVTVSS
VL: DIQMTQSPSSLSASVGDRVTITCRARQSVSYMYWYQQKPGKAPKLLIYRTSNLASGVPSRFSGSGSGTDFTLTISSLQPEDFATYYCQQYHSYPPTFGGGTKVEIK
notes: Screened as scFv
As for B3, the figures for the koff in assay [1] and in assay [2] were 0.000505 s⁻¹ and 0.000207 s⁻¹, respectively.

B4: suPAR_DB04_H01 (scFv, V domains shown)
VH: QVQLVQSGAEVKKPGASVKVSCKASGYTFIGSYVHWVRQAPGQGLEWMGWIDHENGNTIYDQKFQGRVTMTRDTSTSTVYMELSSLRSEDTAVYYCARGYDVDWFVYWGQGTLVTVSS
VL: DIQMTQSPSSLSASVGDRVTITCSARSSVSYMYWYQQKPGKAPKLLIYRTSSLASGVPSRFSGSGSGTDFTLTISSLQPEDFATYYCQQYHSYPPTFGGGTKVEIK
notes: scFv clone from phage display
Take B4: the results for the koff in assay [3] and in assay [4] were 0.00104 s⁻¹ and 0.00127 s⁻¹, respectively.

B5: suPAR_DB01_G02 (scFv, V domains shown)
VH: QVQLVQSGAEVKKPGASVKVSCKASGYSFTDYYMHWVRQAPGQGLEWMGWIDHENGNTIYAQKFQGRVTMTRDTSTSTVYMELSSLRSEDTAVYYCARGYDVDWFVYWGQGTLVTVSS
VL: DIQMTQSPSSLSASVGDRVTITCSARSSVSYMYWYQQKPGKAPKLLIYRTSNLASGVPSRFSGSGSGTDFTLTISSLQPEDFATYYCQQYHSYPPTFGGGTKVEIK
notes: Screened as scFv
Take B5: the koff was determined as 0.00245 s⁻¹ in assay [1] and 0.000149 s⁻¹ in assay [2].

B6: suPAR_DB01_G09 (scFv, V domains shown)
VH: QVQLVQSGAEVKKPGASVKVSCKASGHTLNSYYMHWVRQAPGQGLEWMGWIDPENGNTIYAQKFQGRVTMTRDTSTSTVYMELSSLRSEDTAVYYCARGYDVDWFVYWGQGTLVTVSS
VL: DIQMTQSPSSLSASVGDRVTITCSARQSVSYMYWYQQKPGKAPKLLIYRTSNLASGVPSRFSGSGSGTDFTLTISSLQPEDFATYYCQQYHSYPPTFGGGTKVEIK
notes: Screened as scFv
For the molecule B6, the figures for the koff in assay [1] and in assay [2] were 0.00433 s⁻¹ and 0.000347 s⁻¹, respectively.

B7: suPAR_DB01_G10 (scFv, V domains shown)
VH: QVQLVQSGAEVKKPGASVKVSCKASGYTFTNYYMHWVRQAPGQGLEWMGWIDHEGGNTSYAQKFQGRVTMTRDTSTSTVYMELSSLRSEDTAVYYCARGYDVDWFVYWGQGTLVTVSS
VL: DIQMTQSPSSLSASVGDRVTITCSARSSVSYMYWYQQKPGKAPKLLIYRTSNLASGVPSRFSGSGSGTDFTLTISSLQPEDFATYYCQQYHSYPPTFGGGTKVEIK
notes: Screened as scFv
Regarding B7, the koff in assay [1] was 0.00343 s⁻¹; in assay [2] it was 0.000197 s⁻¹.

B8: suPAR_DB01_F12 (scFv, V domains shown)
VH: QVQLVQSGAEVKKPGASVKVSCKASGFNIKDYYIHWVRQAPGQGLEWMGWIDPENGSTIYDQKFQGRVTMTRDTSTSTVYMELSSLRSEDTAVYYCARGYDVDWFVYWGQGTLVTVSS
VL: DIQMTQSPSSLSASVGDRVTITCRARQSVSYMYWYQQKPGKAPKLLIYRTSNLASGVPSRFSGSGSGTDFTLTISSLQPEDFATYYCQQYHSYPPTFGGGTKVEIK
notes: Screened as scFv
With B8, the koff in assay [1] came to 0.00282 s⁻¹; in assay [2], 0.000192 s⁻¹.

B9: suPAR_DB01_F06 (scFv, V domains shown)
VH: QVQLVQSGAEVKKPGASVKVSCKASGYTFTSYYMHWVRQAPGQGLEWMGWIDHENGNTIYAQKFQGRVTMTRDTSTSTVYMELSSLRSEDTAVYYCARGYDVDWFVYWGQGTLVTVSS
VL: DIQMTQSPSSLSASVGDRVTITCSARQSISYMYWYQQKPGKAPKLLIYRTSNLQSGVPSRFSGSGSGTDFTLTISSLQPEDFATYYCQQYHSYPPTFGGGTKVEIK
notes: Screened as scFv
Take B9: the results for the koff in assay [1] and in assay [2] were 0.00267 s⁻¹ and 4.98e-05 s⁻¹, respectively.

B10: suPAR_DB01_G01 (scFv, V domains shown)
VH: QVQLVQSGAEVKKPGASVKVSCKASGDTFSSYYMHWVRQAPGQGLEWMGWIDHENGNTIYDQKFQGRVTMTRDTSTSTVYMELSSLRSEDTAVYYCARGYDVDWFVYWGQGTLVTVSS
VL: DIQMTQSPSSLSASVGDRVTITCSARSSVSYMYWYQQKPGKAPKLLIYRTSNLASGVPSRFSGSGSGTDFTLTISSLQPEDFATYYCQQYHSYPPTFGGGTKVEIK
notes: Screened as scFv
For B10, the results for the off-rate constant (koff) in assay [1] and in assay [2] were 0.00429 s⁻¹ and 0.000152 s⁻¹, respectively.

B11: suPAR_DB01_G07 (scFv, V domains shown)
VH: QVQLVQSGAEVKKPGASVKVSCKASGNTFTSYYMHWVRQAPGQGLEWMGWIDPENGNTIYDQKFQGRVTMTRDTSTSTVYMELSSLRSEDTAVYYCARGYDVDWFVYWGQGTLVTVSS
VL: DIQMTQSPSSLSASVGDRVTITCSARSSVSYMYWYQQKPGKAPKLLIYRTSNLASGVPSRFSGSGSGTDFTLTISSLQPEDFATYYCQQYHSYPPTFGGGTKVEIK
notes: Screened as scFv
As to B11, the koff came out at 0.00407 s⁻¹ in assay [1] and 1.73e-05 s⁻¹ in assay [2].

B12: suPAR_DB01_F05 (scFv, V domains shown)
VH: QVQLVQSGAEVKKPGASVKVSCKASGYTFSNYYMHWVRQAPGQGLEWMGWIDHEGGSTIYDQKFQGRVTMTRDTSTSTVYMELSSLRSEDTAVYYCARGYDVDWFVYWGQGTLVTVSS
VL: DIQMTQSPSSLSASVGDRVTITCSARSSVSYMYWYQQKPGKAPKLLIYRTSNLASGVPSRFSGSGSGTDFTLTISSLQPEDFATYYCQQYHSYPPTFGGGTKVEIK
notes: Screened as scFv
B12: the values for the koff in assay [1] and in assay [2] were 0.00175 s⁻¹ and 4.95e-07 s⁻¹, respectively.

B13: suPAR_DB01_G08 (scFv, V domains shown)
VH: QVQLVQSGAEVKKPGASVKVSCKASGYSFTNYYMHWVRQAPGQGLEWMGWIDHENGNTSYAQKFQGRVTMTRDTSTSTVYMELSSLRSEDTAVYYCARGYDVDWFVYWGQGTLVTVSS
VL: DIQMTQSPSSLSASVGDRVTITCSARQSVSYMYWYQQKPGKAPKLLIYRTSSLASGVPSRFSGSGSGTDFTLTISSLQPEDFATYYCQQYHSYPPTFGGGTKVEIK
notes: Screened as scFv
As for B13, the koff is 0.00309 s⁻¹ in assay [1] and 0.000104 s⁻¹ in assay [2].

B14: suPAR_DB01_F04 (scFv, V domains shown)
VH: QVQLVQSGAEVKKPGASVKVSCKASGYTFTDYYMHWVRQAPGQGLEWMGWIDHSNGNTIYAQKFQGRVTMTRDTSTSTVYMELSSLRSEDTAVYYCARGYDVDWFVYWGQGTLVTVSS
VL: DIQMTQSPSSLSASVGDRVTITCSARSSVSYMYWYQQKPGKAPKLLIYRTSNLASGVPSRFSGSGSGTDFTLTISSLQPEDFATYYCQQYHSYPPTFGGGTKVEIK
notes: Screened as scFv
With B14, the koff in assay [1] came to 0.00309 s⁻¹; in assay [2] it was 4.59e-05 s⁻¹.

B15: suPAR_DB01_F10 (scFv, V domains shown)
VH: QVQLVQSGAEVKKPGASVKVSCKASGYTFTSYYMHWVRQAPGQGLEWMGWIDHENGSTSYDQKFQGRVTMTRDTSTSTVYMELSSLRSEDTAVYYCARGYDVDWFVYWGQGTLVTVSS
VL: DIQMTQSPSSLSASVGDRVTITCSARSSVSYMYWYQQKPGKAPKLLIYRTSNLASGVPSRFSGSGSGTDFTLTISSLQPEDFATYYCQQYHSYPPTFGGGTKVEIK
notes: Screened as scFv
With B15, the koff in assay [1] came to 0.00183 s⁻¹; in assay [2] it was 3.88e-05 s⁻¹.

B16: suPAR_DB01_F11 (scFv, V domains shown)
VH: QVQLVQSGAEVKKPGASVKVSCKASGYTFTSYYMHWVRQAPGQGLEWMGWIDHEGGNTSYAQKFQGRVTMTRDTSTSTVYMELSSLRSEDTAVYYCARGYDVDWFVYWGQGTLVTVSS
VL: DIQMTQSPSSLSASVGDRVTITCRASSSVSYMYWYQQKPGKAPKLLIYRTSNLASGVPSRFSGSGSGTDFTLTISSLQPEDFATYYCQQYHSYPPTFGGGTKVEIK
notes: Screened as scFv
Regarding B16, the koff in assay [1] stood at 0.00293 s⁻¹; in assay [2], 9.02e-05 s⁻¹.

B17: suPAR_DB01_F02 (scFv, V domains shown)
VH: QVQLVQSGAEVKKPGASVKVSCKASGYTFTNYYVHWVRQAPGQGLEWMGWIDHENGNTIYDQKFQGRVTMTRDTSTSTVYMELSSLRSEDTAVYYCARGYDVDWFVYWGQGTLVTVSS
VL: DIQMTQSPSSLSASVGDRVTITCSARSSVSYMYWYQQKPGKAPKLLIYRTSNLASGVPSRFSGSGSGTDFTLTISSLQPEDFATYYCQQYHSYPPTFGGGTKVEIK
notes: Screened as scFv
On to B17, for which the koff in assay [1] is 0.004 s⁻¹; in assay [2], 9.84e-05 s⁻¹.

B18: suPAR_DB01_G04 (scFv, V domains shown)
VH: QVQLVQSGAEVKKPGASVKVSCKASGYTLSGYYMHWVRQAPGQGLEWMGWIDPNSGGTKYAQKFQGRVTMTRDTSTSTVYMELSSLRSEDTAVYYCARGYDVDWFVYWGQGTLVTVSS
VL: DIQMTQSPSSLSASVGDRVTITCRARQSVSYMYWYQQKPGKAPKLLIYRTSNLASGVPSRFSGSGSGTDFTLTISSLQPEDFATYYCQQYHSYPPTFGGGTKVEIK
notes: Screened as scFv
Consider B18, for which the koff in assay [1] was 0.00364 s⁻¹; in assay [2], 7.99e-05 s⁻¹.

B19: suPAR_DB01_G12 (scFv, V domains shown)
VH: QVQLVQSGAEVKKPGASVKVSCKASGDTFSNYYMHWVRQAPGQGLEWMGWIDHENGNTIYDQKFQGRVTMTRDTSTSTVYMELSSLRSEDTAVYYCARGYDVDWFVYWGQGTLVTVSS
VL: DIQMTQSPSSLSASVGDRVTITCSARSSISYMYWYQQKPGKAPKLLIYRTSNLASGVPSRFSGSGSGTDFTLTISSLQPEDFATYYCQQYHSYPPTFGGGTKVEIK
notes: Screened as scFv
Consider B19, for which the koff in assay [1] was found to be 0.00466 s⁻¹; in assay [2], 0.000247 s⁻¹.
